Source: paper PMC2255029, “UV-A-induced structural and functional changes in human lens deamidated αB-crystallin” (Molecular Vision, 2008)
Numbering of substitutions follows the chain as printed.

B1: wild type (WT) αB-crystallin (natural protein, human, UniProt P02511 1-175, looked up)
chain: MDIAIHHPWIRRPFFPFHSPSRLFDQFFGEHLLESDLFPTSTSLSPFYLRPPSFLRAPSWFDTGLSEMRLEKDRFSVNLDVKHFSPEELKVKVLGDVIEVHGKHEERQDEHGFISREFHRKYRIPADVDPLTITSSLSSDGVLTVNGPRKQVSGPERTIPITREEKPAVTAAPKK
notes: αB-crystallin, human, 175 amino acid residues; cDNA cloned in plasmid pDIRECT; Oligomer; Also used after UV-A exposure (320-400 nm; 20 or 50 J/cm^2), which oxidises Met and/or Trp residues and partly degrades the protein; source: E. coli BL21 (DE3) pLysS, purified (DEAE-Sephacel, Butyl-Sepharose, size-exclusion HPLC)
B2: αB-Asn146Asp deamidated mutant protein (natural protein, human, UniProt P02511 1-175, looked up)
chain: B1 chain with N146D
notes: αB-crystallin, human, 175 amino acid residues; cDNA cloned in plasmid pDIRECT; Asn146 changed to Asp by site-directed mutagenesis; Mimics deamidation of Asn146; Also used after UV-A exposure; source: E. coli BL21 (DE3) pLysS, purified (DEAE-Sephacel, Butyl-Sepharose, size-exclusion HPLC)
B3: αB-Asn78Asp deamidated mutant protein (natural protein, human, UniProt P02511 1-175, looked up)
chain: B1 chain with N78D
notes: αB-crystallin, human, 175 amino acid residues; cDNA cloned in plasmid pDIRECT; Asn78 changed to Asp by site-directed mutagenesis; Mimics deamidation of Asn78; Also used after UV-A exposure; source: E. coli BL21 (DE3) pLysS, purified (DEAE-Sephacel, Butyl-Sepharose, size-exclusion HPLC)
B4: αB-Asn78/146Asp deamidated double mutant protein (natural protein, human, UniProt P02511 1-175, looked up)
chain: B1 chain with N78D, N146D
notes: αB-crystallin, human, 175 amino acid residues; cDNA cloned in plasmid pDIRECT; both Asn78 and Asn146 changed to Asp by site-directed mutagenesis; Mimics deamidation of Asn78 and Asn146; Also used after UV-A exposure; source: E. coli BL21 (DE3) pLysS, purified (DEAE-Sephacel, Butyl-Sepharose, size-exclusion HPLC)

Molecular target: the molecule itself
Assay: cross-linking; UV-A irradiation (320-400 nm; 20 and 50 J/cm^2, about 5 °C, 50 mM phosphate buffer, pH 7.5) of the purified protein, then SDS-PAGE after treatment with 150 mM β-mercaptoethanol; 40 kDa species

B1 was tested. Which “stoichiometry N” value did it give?
Its value is 2.

B2 was tested. Which “stoichiometry N” value did it give?
The value was 2.

With B3 as the protein, how does the “stoichiometry N” value read?
The value was 2.

For B4, which “stoichiometry N” value is on record?
The value was 2.
